Data reported in paper PMC4955526 (2017).
Read-outs that look alike come from different tables or passages of the source.

T1: ALK3-Fc ECD (Homo sapiens, UniProt P36894)
T1 chain: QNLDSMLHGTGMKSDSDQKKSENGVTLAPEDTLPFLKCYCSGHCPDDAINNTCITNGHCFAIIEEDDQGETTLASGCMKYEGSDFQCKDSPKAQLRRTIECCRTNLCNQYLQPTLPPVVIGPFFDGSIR

T2: Cerberus-Fc (Homo sapiens, UniProt O95813)
T2 chain: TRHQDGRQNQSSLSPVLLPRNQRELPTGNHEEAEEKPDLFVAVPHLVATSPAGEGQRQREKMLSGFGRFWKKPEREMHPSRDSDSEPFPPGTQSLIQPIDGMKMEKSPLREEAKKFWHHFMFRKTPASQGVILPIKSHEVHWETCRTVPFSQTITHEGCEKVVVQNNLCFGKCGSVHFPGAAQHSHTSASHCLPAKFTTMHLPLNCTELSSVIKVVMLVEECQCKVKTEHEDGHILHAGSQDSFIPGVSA

T3: BMPRII-Fc ECD (Homo sapiens, UniProt Q13873)
T3 chain: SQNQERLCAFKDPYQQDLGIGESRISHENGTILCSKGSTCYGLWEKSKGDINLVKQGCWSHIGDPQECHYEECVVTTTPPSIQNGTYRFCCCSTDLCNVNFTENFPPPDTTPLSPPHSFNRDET

B1: Cerberus (protein)
chain: T2 chain
B2: BMP-4 (protein)
chain: SPKHHSQRARKKNKNCRRHSLYVDFSDVGWNDWIVAPPGYQAFYCHGDCPFPLADHLNSTNHAIVQTLVNSVNSSIPKACCVPTELSAISMLYLDEYDKVVLKNYQEMVVEGCGCR

Experiments:
BMP-4 [1] = target: B2; assay: SPR competition vs Cerberus-Fc
BMP-4 [2] = target: B2; assay: SPR competition vs ALK3-Fc
BMP-4 [3] = target: B2; assay: SPR competition vs BMPRII-Fc
BMP-4 [4] = target: B2; assay: SPR competition vs ALK3-Fc
BMP-4 [5] = target: B2; assay: SPR competition vs ActRIIA-Fc
BMP-4 [6] = target: B2; assay: SPR competition vs ALK3-Fc
BMP-4 [7] = target: B2; assay: SPR competition vs ActRIIA-Fc
BMP-4 [8] = target: B2; assay: SPR competition vs BMPRII-Fc
BMP-4 [9] = target: B2; assay: SPR competition vs BMPRII-Fc
BMP-4 [10] = target: B2; assay: SPR competition vs Cerberus-Fc
BMP-4 [11] = target: B2; assay: SPR competition vs ActRIIA-Fc
BMP-4 [12] = target: B2; assay: SPR competition vs BMPRII-Fc
BMP-4 [13] = target: B2; assay: SPR competition vs Cerberus-Fc
BMP-4 [14] = target: B2; assay: SPR competition vs ALK3-Fc
BMP-4 [15] = target: B2; assay: SPR competition vs ActRIIA-Fc
BMP-4 [16] = target: B2; assay: SPR competition vs ActRIIA-Fc
BMP-4 [17] = target: B2; assay: SPR competition vs Cerberus-Fc
ALK3-Fc ECD = target: T1, ALK3-Fc ECD; assay: SPR
Cerberus-Fc [18] = target: T2, Cerberus-Fc; assay: SPR
ActRIIA-Fc ECD [19] = target: T4, ActRIIA-Fc ECD (Homo sapiens, UniProt P27037); assay: SPR
BMPRII-Fc ECD = target: T3, BMPRII-Fc ECD; assay: SPR
Cerberus-Fc [20] = target: T2, Cerberus-Fc; assay: SPR
ActRIIA-Fc ECD [21] = target: T4, ActRIIA-Fc ECD; assay: SPR; remark: listed apart in the source

T4 sequence (P27037 20-135): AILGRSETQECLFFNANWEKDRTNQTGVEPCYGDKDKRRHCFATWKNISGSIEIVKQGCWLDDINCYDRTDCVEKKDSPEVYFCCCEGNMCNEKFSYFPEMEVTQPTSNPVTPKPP

Binder: B1
IC50 (BMP-4 [1]): 46.6 nM | IC50 (BMP-4 [2]): 303 nM | IC50 (BMP-4 [3]): 166 nM | IC50 (BMP-4 [4]): 245 nM | IC50 (BMP-4 [5]): 56 nM | IC50 (BMP-4 [6]): 289 nM | IC50 (BMP-4 [7]): 58 nM | IC50 (BMP-4 [8]): 138 nM | IC50 (BMP-4 [9]): 153 nM | IC50 (BMP-4 [10]): 57.6 nM | IC50 (BMP-4 [11]): 239 nM | IC50 (BMP-4 [12]): 132 nM | IC50 (BMP-4 [13]): 99.7 nM | IC50 (BMP-4 [14]): 134 nM | IC50 (BMP-4 [15]): 266 nM | IC50 (BMP-4 [16]): 305 nM | IC50 (BMP-4 [17]): 56.7 nM

Binder: B2
Kd (ALK3-Fc ECD): 0.193 nM | Kd (Cerberus-Fc [18]): 2.73 nM | Kd (ActRIIA-Fc ECD [19]): 2.85 nM | Kd (BMPRII-Fc ECD): 8.13 nM | Kd (Cerberus-Fc [20]): 2.24 nM | Kd (ActRIIA-Fc ECD [21]): 3.26 nM
